Assay results: article doi:10.1101/2022.08.17.504347 (bioRxiv, 2022)

B1: human CENP-C fragment hCENP-C^760-943 (C-terminus of hCENP-C, wild type) (domain or fragment, UniProt Q03188-1 760-943, looked up)
chain: GRPSGGFVISGVLSPDTISSKRKAKENIGKVNKKSNKKRICLDNDERKTNLMVNLGIPLGDPLQPTRVKDPETREIILMDLVRPQDTYQFFVKHGELKVYKTLDTPFFSTGKLILGPQEEKGKQHVGQDILVFYVNFGDLLCTLHETPYILSTGDSFYVPSGNYYNIKNLRNEESVLLFTQIKR

Tests used:
[1] = target: chicken CENP-C^677-864 (C-terminus of chicken CENP-C including the Cupin domain) (chicken); experiment: crystal structure
[2] = target: the molecule itself; experiment: native gel or EMSA

| Molecule | stoichiometry N [1] | binding result [2] |
| --- | --- | --- |
| chicken CENP-C^677-864 (C-terminus of chicken CENP-C including the Cupin domain) (domain or fragment) | 2 | – |
| B1 | – | binds |
